In patent publication US20100255012A1 one finds percentage molecules present as monomers data, which are given here for 3 substances.

What all share (assay): non-covalent nano-electrospray mass spectrometry at 0.01-10 µM, value at low concentrations; self-association
In assay [1] the target is 2F8-HG-L236V.
Assay [2] has as its target 2F8-HG CH3 mutant F273A.
The target in assay [3] is 2F8-HG-Y275A.

With 2F8-HG-L236V (antibody), in assay [1], the percentage molecules present as monomers worked out at 100%.
With 2F8-HG CH3 mutant F273A (antibody), the percentage molecules present as monomers in assay [2] stood at 100%.
In turn, 2F8-HG-Y275A (antibody) gave a percentage molecules present as monomers in assay [3] of 100%.
